From US20210113687A1, “METHODS FOR TREATING INFLAMMATION” (NEW YORK UNIVERSITY, priority 2013, published 2021)

System: BMDM
Assay: qRT-PCR of BMDM (palmitate, cytokines, adipocyte conditioned media)
Format: cell-based, mouse
Details: direct addition of cytokine
Protocol: Real-time Quantitative RT-PCR Analysis RNA (0.5-1 μg) was reverse transcribed using iScript™ cDNA Synthesis Kit (Biorad) and RT-PCR analysis was conducted using kapa SYBR green Supermix (kappa syber) and a Mastercycler Realplex (Eppendorf) the primers used are listed. Fold change in mRNA expression was calculated using the comparative cycle method (ΔΔCt).
Cell culture. Primary bone marrow derived macrophage (BMDM) was prepared by flushing the bone marrow of the tibia and femur of 6-8 week old C57/B6 mice. The cells were grown in DMEM supplemented with 15% L929-conditioned media, 10% FBS and 1% penicillin/streptomycin for 7 days. BMDM were stimulated 250 pM palmitate conjugated with BSA or BSA as a control for 24 hours, or TNFα (10 ng/ml, 410-MT-010; R&D systems), IL-6 (40 nglml, 406-ML-005; R&D systems) and IL-4 (1 Onglml, 404-ML-010; R&D systems) for 24 h. In some assays, differentiated BMDM were treated with conditioned media from 3T3-L1 adipocytes differentiated as described (Lin, et al., J Biol Chem, 2005; 280:4617-4626) and treated with 250 pM palmitate conjugated with BSA or BSA for 24 hours. In certain experiments, anti-TNFα (0.4 μg/ml, AF-410-NA, R&D systems) or anti-IL-6 (0.025 μg/ml, MAB406; R&D systems) blocking antibody or IgG control (Normal Goat IgG: AB-108-C, Rat IgG1: MAB005; R&D systems) was added to conditioned media. […]

B1: IL-6: cytokine, 406-ML-005 R&D systems (protein, UniProt P08505 25-211, looked up)
Interleukin-6: FPTSQVRRGDFTEDTTPNRPVYTTSQVGGLITHVLWEIVEMRKELCNGNSDCMNNDDALAENNLKLPEIQRNDGCYQTGYNQEICLLKISSGLLEYHSYLEYMKNNLKDNKKDKARVLQRDTETLIHIFNQEVKDLHKIVLPTPISNALLTDKLESQKEWLRTKTIQFILKSLEEFLKVTLRSTRQT
Ntn1 mRNA in BMDMs: increased Ntn1 mRNA
